The values below are quoted from earlier work in publication PMC6690345.

For orientation: Kd means a measure of binding affinity in units of concentration.

The target in the series is integrin αIIbβ3 (Homo sapiens) (UniProt P08514). Description: SPR.

With ERp5 (from UniProt Q15084), the Kd was 21 µM. PDI (from UniProt P07237): the Kd is 1 µM.
